Results reported in US20040053823.

What was measured:
[1] = system: phage clone D12 (SEQ ID NO:31)
[2] = system: phage clone D5 (SEQ ID NO:34)
[3] = system: synthesized polypeptide A11 (contains SEQ ID NO:29)
[4] = system: phage clone A11 (SEQ ID NO:29)
[5] = system: mutant peptide A11m2 (AC-SGKIPRTATA-NH2, SEQ ID NO:126)
[6] = system: phage clone C15 (SEQ ID NO:28)
[7] = system: synthesized polypeptide C15 (contains SEQ ID NO:28)
[8] = system: phage clone A6 (SEQ ID NO:30), MMP-9 substrate
[9] = system: phage clone D17 (SEQ ID NO:35)
[10] = system: the peptides (MMP-9 substrate peptides of Example III)
[11] = system: phage clone D36 (SEQ ID NO:32)
[12] = system: synthesized polypeptide A6 (contains SEQ ID NO:30)
[13] = system: variants of three peptides synthesized to contain a Pro at P3
[14] = system: phage clone D24 (SEQ ID NO:33)
[15] = system: phage clone A21 (SEQ ID NO:17)
[16] = system: phage clone A6 (SEQ ID NO:9), MMP-2 substrate
[17] = system: phage clone A43 (SEQ ID NO:8)
[18] = system: phage clone C6 (SEQ ID NO:22)
[19] = system: phage clone A3 (SEQ ID NO:24)
[20] = system: phage clone B66 (SEQ ID NO:6)
[21] = system: synthesized polypeptide A13 (SEQ ID NO:12)
[22] = system: synthesized polypeptide C9 (SEQ ID NO:10)
[23] = system: phage clone A54 (SEQ ID NO:3)
[24] = system: phage clone A45 (SEQ ID NO:25)
[25] = system: phage clone A4 (SEQ ID NO:21)
[26] = system: phage clone A9 (SEQ ID NO:19)
[27] = system: phage clone C9 (SEQ ID NO:10)
[28] = system: phage clone B49 (SEQ ID NO:1)
[29] = system: phage clone C5 (SEQ ID NO:18)
[30] = system: phage clone B79 (SEQ ID NO:5)
[31] = system: phage clone A31 (SEQ ID NO:14)
[32] = system: phage clone B46 (SEQ ID NO:7)
[33] = system: phage clone A21 (SEQ ID NO:20)
[34] = system: synthesized polypeptide A3 (SEQ ID NO:24)
[35] = system: phage clone A34 (SEQ ID NO:11)
[36] = system: synthesized polypeptide B37 (SEQ ID NO:13)
[37] = system: phage clone A54 (SEQ ID NO:4)
[38] = system: synthesized polypeptide A21 (SEQ ID NO:17)
[39] = system: synthesized polypeptide A34 (SEQ ID NO:11)
[40] = system: phage clone B53 (SEQ ID NO:15)
[41] = system: phage clone A10 (SEQ ID NO:26)
[42] = system: phage clone D3 (SEQ ID NO:23)
[43] = system: phage clone B37 (SEQ ID NO:13)
[44] = system: phage clone A13 (SEQ ID NO:12)
[45] = system: phage clone A29 (SEQ ID NO:27)
[46] = system: synthesized polypeptide B74 (SEQ ID NO:2)
[47] = system: synthesized polypeptide B49 (SEQ ID NO:1)
[48] = system: phage clone B74 (SEQ ID NO:2)
[49] = system: phage clone C3 (SEQ ID NO:16)

MMP-9 (recombinant catalytic domain, APMA-activated), sequence (chain, as listed by the source): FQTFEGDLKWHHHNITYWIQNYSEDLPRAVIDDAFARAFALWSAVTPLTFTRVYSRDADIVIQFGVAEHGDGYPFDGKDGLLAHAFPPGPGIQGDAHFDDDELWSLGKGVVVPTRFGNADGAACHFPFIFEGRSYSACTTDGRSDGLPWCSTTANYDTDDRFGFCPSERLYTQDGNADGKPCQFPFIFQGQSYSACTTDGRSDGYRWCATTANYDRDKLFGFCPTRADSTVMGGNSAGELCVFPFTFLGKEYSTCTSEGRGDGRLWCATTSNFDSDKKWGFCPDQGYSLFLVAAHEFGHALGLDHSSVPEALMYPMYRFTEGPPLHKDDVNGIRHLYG
MMP-2 (recombinant catalytic domain, APMA-activated), sequence (chain, as listed by the source): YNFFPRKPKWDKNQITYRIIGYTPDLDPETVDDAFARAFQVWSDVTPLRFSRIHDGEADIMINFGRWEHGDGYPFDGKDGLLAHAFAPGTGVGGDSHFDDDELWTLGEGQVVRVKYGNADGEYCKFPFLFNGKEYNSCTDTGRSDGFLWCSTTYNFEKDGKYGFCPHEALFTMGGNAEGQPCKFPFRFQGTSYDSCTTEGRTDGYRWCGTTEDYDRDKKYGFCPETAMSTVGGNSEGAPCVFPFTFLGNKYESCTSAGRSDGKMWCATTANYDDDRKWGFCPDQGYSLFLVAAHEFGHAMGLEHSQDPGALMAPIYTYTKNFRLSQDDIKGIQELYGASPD

With “MMP-9 (recombinant catalytic domain, APMA-activated)” the % hydrolysis (substrate phage ELISA) [1] was 100%, the % hydrolysis (substrate phage ELISA) [2] was 60% and the selectivity ratio: kcat/Km for MMP-9 divided by kcat/Km for MMP-7 [3] was 10. The selectivity ratio: kcat/Km for MMP-9 divided by kcat/Km for MMP-13 [3] was 3, the % hydrolysis (substrate phage ELISA) [4] was 100% and the “fold reduction of kcat/Km relative to peptide A11” value [5] was “reduced kcat/Km ratio nearly 30-fold”. The kcat/Km ratio [5] was “measurable kcat/Km ratio (2,000M^-1s^-1)”, the % hydrolysis (substrate phage ELISA) [6] was 100% and the selectivity ratio: kcat/Km for MMP-9 divided by kcat/Km for MMP-7 [7] was 14. The selectivity ratio: kcat/Km for MMP-9 divided by kcat/Km for MMP-13 [7] was 12, the % hydrolysis (substrate phage ELISA) [8] was 100% and the % hydrolysis (substrate phage ELISA) [9] was 67%. The kcat/Km relative to the parent peptide A11 (mutant peptide A11m1) was 2 fold, the “Km (Michaelis constant)” value [10] was “Km values were generally in the high micromolar to low millimolar range” and the “kcat (first-order rate constant of substrate peptide turnover)” value [10] was “the kcat values ranged from 9 s^-1 to 703 s^-1”. For the same substance, the “kcat/Km ratio for MMP-9 over that for MMP-7 or MMP-13” value [10] was “The kcat/Km ratios ranged from 2.6 to 47 fold higher for MMP-9 than for either MMP-7 or MMP-13”, the % hydrolysis (substrate phage ELISA) [11] was 91% and the selectivity ratio: kcat/Km for MMP-9 divided by kcat/Km for MMP-7 [12] was 47. For the same substance, the selectivity ratio: kcat/Km for MMP-9 divided by kcat/Km for MMP-13 [12] was 5, the “fold increase of the kcat/Km ratio on inclusion of Pro at P3” value [13] was “increased the kcat/Km ratio for MMP-9 between three and eleven-fold” and the % hydrolysis (substrate phage ELISA) [14] was 85%.
“MMP-2 (recombinant catalytic domain, APMA-activated)” showed a % hydrolysis (substrate phage ELISA) [15] of 30%, a % hydrolysis (substrate phage ELISA) [16] of 30% and a % hydrolysis (substrate phage ELISA) [17] of 38%. It also gave a % hydrolysis (substrate phage ELISA) [18] of 19%, a % hydrolysis (substrate phage ELISA) [19] of 100% and a % hydrolysis (substrate phage ELISA) [20] of 51%. The selectivity ratio: kcat/Km for MMP-2 divided by kcat/Km for MMP-7 [21] was 13, the selectivity ratio: kcat/Km for MMP-2 divided by kcat/Km for MMP-9 [21] was 15 and the selectivity ratio: kcat/Km for MMP-2 divided by kcat/Km for MMP-13 [21] was 28. It also gave a selectivity ratio: kcat/Km for MMP-2 divided by kcat/Km for MMP-7 [22] of 35, a selectivity ratio: kcat/Km for MMP-2 divided by kcat/Km for MMP-9 [22] of 198 and a selectivity ratio: kcat/Km for MMP-2 divided by kcat/Km for MMP-13 [22] of 52. It also gave a % hydrolysis (substrate phage ELISA) [23] of 98%, a % hydrolysis (substrate phage ELISA) [24] of 100% and a % hydrolysis (substrate phage ELISA) [25] of 30%. The % hydrolysis (substrate phage ELISA) [26] was 50%, the % hydrolysis (substrate phage ELISA) [27] was 100% and the % hydrolysis (substrate phage ELISA) [28] was 100%. It also gave a % hydrolysis (substrate phage ELISA) [29] of 60%, a % hydrolysis (substrate phage ELISA) [30] of 64% and a % hydrolysis (substrate phage ELISA) [31] of 100%. The % hydrolysis (substrate phage ELISA) [32] was 48%, the % hydrolysis (substrate phage ELISA) [33] was 30% and the selectivity ratio: kcat/Km for MMP-2 divided by kcat/Km for MMP-7 [34] was 21. For the same substance, the selectivity ratio: kcat/Km for MMP-2 divided by kcat/Km for MMP-9 [34] was 2, the selectivity ratio: kcat/Km for MMP-2 divided by kcat/Km for MMP-13 [34] was 14 and the % hydrolysis (substrate phage ELISA) [35] was 100%. For the same substance, the selectivity ratio: kcat/Km for MMP-2 divided by kcat/Km for MMP-7 [36] was 17, the selectivity ratio: kcat/Km for MMP-2 divided by kcat/Km for MMP-9 [36] was 71 and the selectivity ratio: kcat/Km for MMP-2 divided by kcat/Km for MMP-13 [36] was 58. The % hydrolysis (substrate phage ELISA) [37] was 72%, the selectivity ratio: kcat/Km for MMP-2 divided by kcat/Km for MMP-9 [38] was 8 and the selectivity ratio: kcat/Km for MMP-2 divided by kcat/Km for MMP-7 [39] was 84. For the same substance, the selectivity ratio: kcat/Km for MMP-2 divided by kcat/Km for MMP-9 [39] was 40, the selectivity ratio: kcat/Km for MMP-2 divided by kcat/Km for MMP-13 [39] was 24 and the % hydrolysis (substrate phage ELISA) [40] was 73%. For the same substance, the % hydrolysis (substrate phage ELISA) [41] was 80%, the % hydrolysis (substrate phage ELISA) [42] was 13% and the % hydrolysis (substrate phage ELISA) [43] was 97%. For the same substance, the % hydrolysis (substrate phage ELISA) [44] was 100%, the “peptide hydrolysis (kcat/Km), compared with MMP-9” value [13] was “the proline-containing peptides remained better substrates for MMP-2 (data not shown)” and the % hydrolysis (substrate phage ELISA) [45] was 100%. It also gave a selectivity ratio: kcat/Km for MMP-2 divided by kcat/Km for MMP-7 [46] of 354, a selectivity ratio: kcat/Km for MMP-2 divided by kcat/Km for MMP-9 [46] of 108 and a selectivity ratio: kcat/Km for MMP-2 divided by kcat/Km for MMP-13 [46] of 140. The selectivity ratio: kcat/Km for MMP-2 divided by kcat/Km for MMP-7 [47] was 6, the selectivity ratio: kcat/Km for MMP-2 divided by kcat/Km for MMP-9 [47] was 14 and the selectivity ratio: kcat/Km for MMP-2 divided by kcat/Km for MMP-13 [47] was 13. For the same substance, the % hydrolysis (substrate phage ELISA) [48] was 81% and the % hydrolysis (substrate phage ELISA) [49] was 28%.
